Laboratory results taken from the supplement of paper PMC10724198.
± gives the standard deviation of the averaged measurements.

Test system: Saccharomyces cerevisiae
Test: protein stability index of tFT-peptide fusion (C-terminal peptide) (PSI (0-1 scale)); higher = more stable (slower turnover)
Conditions: genetic background: wild type; temperature: 30 C
Experimental: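 Multiplexed protein stability (MPS) profiling in S. cerevisiae. Random 12-aa peptides (tFT-X12 library) are fused to the C-terminus of a sfGFP-mCherry tandem fluorescent timer, after mCherry and a GGGS linker. Cells are FACS-sorted into 8 mCherry/sfGFP bins and deep-sequenced. The protein stability index (PSI) is the read-weighted bin average, scaled from 0 (unstable) to 1 (stable). Only peptides with >10 reads are reported; cells were grown at 30 °C in SC-His with glucose.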
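Also: PSI is a weighted mean of sequencing reads over stability bins, variants kept only with over 10 reads, mCherry proximal and sfGFP distal, peptide attached via GGGS linker.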

Point of comparison: GPGCVFFLACRG, protein stability index 0.559 ± 0.024. Against it:
- GIGGSGLVSVVD — higher, 0.716 ± 0.039
- GIGLVIEDKLLL — higher, 0.683 ± 0.042
- GIGVRLGFWCRG — higher, 0.75 ± 0.05
- GILVDGRGRGCR — higher, 0.735 ± 0.039
- GIMFVSEPVLSS — higher, 0.664 ± 0.0025
- GIPPFFTLCRLS — within error, 0.57 ± 0.034
- GIRHSNLGQALE — within error, 0.686 ± 0.11
- GITAWMAHPRSV — higher, 0.706 ± 0.012
- GIVGCDFLLFYF — higher, 0.698 ± 0.018
- GIVGLFSALSLL — higher, 0.706 ± 0.1
- GIWVMVSVCSIA — within error, 0.537 ± 0.082
- GIWVWRGARSVG — higher, 0.745 ± 0.054
- GIYCSFSCKPCP — higher, 0.6699 ± 0.0042
- GKAKGRESGDRQ — higher, 0.678 ± 0.039
- GKKKKKERKHGA — higher, 0.7351 ± 0.0055
- GKKKRKTKGKNR — higher, 0.663 ± 0.035
- GKKKVKEWKKQM — within error, 0.604 ± 0.025
- GKKRFENKKEKY — higher, 0.762 ± 0.12
- GKMQIRRFISRS — higher, 0.67 ± 0.0088
- GKPSEMSMREDS — higher, 0.704 ± 0.019
- GKRHSYSIISSV — higher, 0.668 ± 0.061
- GKRLKKTRTKKS — higher, 0.704 ± 0.059
- GKRLRFNRRTRA — within error, 0.662 ± 0.11
- GKVTRGTRRGGK — higher, 0.66901 ± 0.0003
- GLADPPNSRPAG — higher, 0.673 ± 0.05
- GLASFVMQVAPF — higher, 0.705 ± 0.008
- GLDEAYVSRNIN — higher, 0.647 ± 0.011
- GLDRCFTSFYSI — higher, 0.702 ± 0.059
- GLFSTRLFCTFL — higher, 0.635 ± 0.026
- GLGEGLVCFLLG — higher, 0.73 ± 0.056
- GLGGRGRRASEW — higher, 0.664 ± 0.071
- GLGKFSALSLVV — higher, 0.658 ± 0.044
- GLGLGLSGGAML — higher, 0.665 ± 0.069
- GLGMIIQNIIHS — higher, 0.642 ± 0.026
- GLGPMPRGTSTI — higher, 0.692 ± 0.1
- GLGRWGCLEGLG — higher, 0.716 ± 0.071
- GLGTAFGAADTV — higher, 0.693 ± 0.012
- GLGVCSPRFLVL — higher, 0.763 ± 0.15
- GLGVWDLRLGWG — higher, 0.701 ± 0.011
- GLHSSNQLGALY — higher, 0.677 ± 0.036
- GLLCSKTCCAGV — higher, 0.6453 ± 0.0024
- GLLDGEILKRRI — higher, 0.6978 ± 0.0053
- GLLEGGLWVWGL — higher, 0.692 ± 0.04
- GLLQRCGAWRGS — higher, 0.656 ± 0.04
- GLMAIKVNLNHS — higher, 0.619 ± 0.032
- GLPFPPGPIFVS — within error, 0.743 ± 0.19
- GLPPPPQPLPHA — higher, 0.726 ± 0.14
- GLPPPSPPVPLL — higher, 0.683 ± 0.043
- GLRPPGLRLGSL — higher, 0.6475 ± 0.0047
- GLRPPPLRPAPP — higher, 0.704 ± 0.08
- GLRSDIGQVTHP — within error, 0.635 ± 0.066
- GLSEPWVFFLRC — higher, 0.64 ± 0.012
- GLSRAWVAGVRG — higher, 0.735 ± 0.037
- GLVCSHLRTAGS — higher, 0.6857 ± 0.0063
- GLVRWRWGDRPS — within error, 0.56 ± 0.066
- GLVSALSGLLTP — within error, 0.651 ± 0.089
- GLWQRVGIVIGC — within error, 0.58 ± 0.017
- GLYRQRVCLRSG — higher, 0.6097 ± 0.0036
- GMAKGWHCESSS — higher, 0.716 ± 0.041
- GMLGVIGGKVGR — higher, 0.699 ± 0.052
- GMQVRNTKERRG — higher, 0.714 ± 0.02
- GMRFDTERKWLL — higher, 0.695 ± 0.084
- GMSFALSVYFFP — higher, 0.601 ± 0.01
- GMVRVRSIATHG — within error, 0.597 ± 0.034
- GNFAGLTRDRGP — higher, 0.674 ± 0.052
- GNFIGSWLHTVD — higher, 0.811 ± 0.11
- GNGEGRKPPRPP — higher, 0.619 ± 0.014
- GNKKRDSDKIKE — higher, 0.6054 ± 0.0028
- GNLFIGLLHITC — within error, 0.5753 ± 0.0034
- GNLVSFCTKKGA — higher, 0.722 ± 0.014
- GNPDFQVTKNPY — higher, 0.67 ± 0.078
- GNQAILGRYLSV — within error, 0.623 ± 0.051
- GNVAMRKNIIGL — higher, 0.674 ± 0.057
- GNVNCNLRRYYI — higher, 0.766 ± 0.086
- GPAAPAGNPETV — higher, 0.6694 ± 0.0043
- GPCPCAPRSPSY — higher, 0.6705 ± 0.0033
- GPFLFPGASCGL — higher, 0.717 ± 0.011
- GPFRGRCFPFCI — higher, 0.667 ± 0.037
- GPGFGEFVWSLW — higher, 0.692 ± 0.044
- GPGPRLSCLVPT — higher, 0.73 ± 0.035
- GPGTYGASLSGR — higher, 0.65 ± 0.053
- GPKGVTRCGATR — higher, 0.721 ± 0.12
- GPKPHREKKSIN — higher, 0.73 ± 0.045
- GPKSPLVCSPPP — within error, 0.657 ± 0.13
- GPLATACPPALT — higher, 0.701 ± 0.046
- GPLPPPFSALPP — higher, 0.703 ± 0.024
- GPLRFSLPPPPS — higher, 0.69 ± 0.017
- GPRPHVLPLAYF — higher, 0.675 ± 0.024
- GPRTPPKPRQVP — higher, 0.616 ± 0.024
- GPSCSGLHAPTS — higher, 0.831 ± 0.1
- GPSGGSGGGGVG — within error, 0.597 ± 0.049
- GPSLLLLSVLSE — higher, 0.6225 ± 0.003
- GPTSTETYKEVG — higher, 0.671 ± 0.0011
- GPVLELWLGRSR — higher, 0.775 ± 0.04
- GPVQSISMTVGH — higher, 0.6548 ± 0.0025
- GPVSVTFGGTYC — higher, 0.678 ± 0.046
- GPWGGRLSWAPG — higher, 0.636 ± 0.0092
- GQMSKMRDRLIA — higher, 0.652 ± 0.0094
- GQPGDCWRVCPR — higher, 0.6851 ± 0.0027
- GQPLAEKFGEFV — within error, 0.623 ± 0.088
- GRAPPGHSLPVR — higher, 0.7187 ± 0.0071
- GRAWWVGGEGVW — higher, 0.677 ± 0.014
- GRCGGEGGGEEE — higher, 0.673 ± 0.031
- GRCRALVARGGH — within error, 0.76 ± 0.2
- GREVRGLRVPGS — within error, 0.653 ± 0.071
- GRGEDLVRRHTP — higher, 0.668 ± 0.032
- GRGEGVDRSSRR — higher, 0.703 ± 0.017
- GRGGGEEEEEER — higher, 0.663 ± 0.024
- GRGGGSRIVGGV — higher, 0.704 ± 0.023
- GRGGRGWGEWDR — higher, 0.706 ± 0.059
- GRGGVLEEAVGG — within error, 0.654 ± 0.077
- GRGIVVQNVLRQ — higher, 0.696 ± 0.011
- GRGVDGRSGCLL — higher, 0.6732 ± 0.0029
- GRLPAYIHATRA — higher, 0.63128 ± 0.00047
- GRLSPRRPRLLV — higher, 0.645 ± 0.024
- GRPYCISASPPH — higher, 0.706 ± 0.0075
- GRQTEENRKRRV — higher, 0.7 ± 0.037
- GRRGRSASRIRA — higher, 0.76 ± 0.14
- GRRMGHQLGAGA — higher, 0.684 ± 0.039
- GRRMRGAEKQKK — higher, 0.829 ± 0.16
- GRRPDEQRQTIG — higher, 0.677 ± 0.0071
- GRRQGKRRIGRK — higher, 0.652 ± 0.036
- GRRTNLCERLAL — higher, 0.722 ± 0.042
- GRSAGGTGAPSR — higher, 0.699 ± 0.022
- GRSAVVMCFHAG — higher, 0.697 ± 0.018
- GRSAYRESGRRV — higher, 0.675 ± 0.04
- GRSCAFCRVSRG — higher, 0.721 ± 0.083
- GRSGGGTGAPSR — within error, 0.637 ± 0.061
- GRSPEIGPHIVN — higher, 0.699 ± 0.014
- GRVGLRGRPGPP — higher, 0.716 ± 0.12
- GRVRAKTETSNS — higher, 0.669 ± 0.028
- GRVSGDRFIVIV — within error, 0.572 ± 0.0008
- GRVVGDGRSVGV — higher, 0.683 ± 0.01
- GSACGSSYKWQM — within error, 0.614 ± 0.068
- GSAGPWSFVGDP — higher, 0.702 ± 0.085
- GSCLLCGACGCR — higher, 0.692 ± 0.061
- GSCSGTVLGGSV — higher, 0.626 ± 0.024
- GSCVGASRGWLV — higher, 0.727 ± 0.068
- GSEISTRGVGRR — higher, 0.6647 ± 0.0013
- GSFVLPLIYIHN — lower, 0.499 ± 0.0025
- GSGGRGTVCSEG — higher, 0.652 ± 0.015
- GSGPPVGNGLIV — higher, 0.7169 ± 0.0027
- GSGRGGWRRGER — higher, 0.707 ± 0.042
- GSIRFVIFLTRL — within error, 0.587 ± 0.12
- GSLIVAARGVAG — higher, 0.681 ± 0.024
- GSLLSNVPPRIR — higher, 0.706 ± 0.013
- GSQRAHRQAAHD — higher, 0.683 ± 0.077
- GSQVGVRWGRFG — higher, 0.675 ± 0.0079
- GSRGGPGGEAAG — higher, 0.652 ± 0.019
- GSRRSWWVLCLG — within error, 0.485 ± 0.072
- GSRSLISLRTGA — within error, 0.604 ± 0.037
- GSSHLRFRGMEG — higher, 0.614 ± 0.02
- GSSTINRVDLKR — higher, 0.662 ± 0.015
- GSSYRKNDRQEK — higher, 0.723 ± 0.048
- GSVFWVCGFFRV — the same, 0.559 ± 0.034
- GSVGDASYAAVW — higher, 0.819 ± 0.034
- GSVGQNLCPGSI — higher, 0.667 ± 0.031
- GSVGSRIFLVHV — within error, 0.602 ± 0.086
- GSVMGRRTGAFV — higher, 0.653 ± 0.041
- GSVRSLARFCVF — within error, 0.499 ± 0.072
- GSVTLTLLRPPS — higher, 0.753 ± 0.086
- GSYSIVDRTPLF — within error, 0.5679 ± 0.005
- GSYVPPVVLLYK — higher, 0.647 ± 0.0095
- GTDWRDKADLRG — higher, 0.7071 ± 0.0046
- GTEKRDSDKIIL — higher, 0.68 ± 0.086
- GTGSRFRCLERS — higher, 0.739 ± 0.031
- GTLFKEGSRVTL — higher, 0.665 ± 0.027
- GTRAGGGWSCES — higher, 0.711 ± 0.02
- GTRGLDTPPGRD — higher, 0.663 ± 0.067
- GTSPGREFYWHK — higher, 0.702 ± 0.033
- GTTHHRRKPSYL — higher, 0.725 ± 0.05
- GTTLGEVVCGVL — higher, 0.683 ± 0.045
- GTVDGILLVFVE — within error, 0.593 ± 0.026
- GVAPGRSRRKRG — higher, 0.67 ± 0.018
- GVCSWLVFGGWA — higher, 0.684 ± 0.056
- GVDAGGVFSRLC — higher, 0.639 ± 0.018
- GVDGRWGGEMGR — higher, 0.747 ± 0.097
- GVEDRFGGSCGL — higher, 0.639 ± 0.049
- GVERSLFGRIGV — higher, 0.735 ± 0.024
- GVESQIHISTYE — higher, 0.686 ± 0.049
- GVEVVVWRSGGI — higher, 0.688 ± 0.019
- GVFAGGLWCVGF — within error, 0.657 ± 0.087
- GVFGGAGCGVVL — higher, 0.724 ± 0.022
- GVFGLMVGWGWG — higher, 0.671 ± 0.053
- GVFWRGCGGCGG — higher, 0.685 ± 0.041
- GVGDELIRAEQT — higher, 0.723 ± 0.018
- GVGGFPSRLVGG — higher, 0.69 ± 0.043
- GVGGRAGWGGLL — higher, 0.7167 ± 0.002
- GVGGRGVGAGGG — higher, 0.662 ± 0.055
- GVGLGGVGFRGG — higher, 0.694 ± 0.098
- GVGSWSCGGSVH — higher, 0.6634 ± 0.0034
- GVIKLTQEKAST — higher, 0.679 ± 0.017
- GVLCGQGRAGAA — higher, 0.7 ± 0.014
- GVLCGVGLGFGV — higher, 0.702 ± 0.044
- GVLDTRWIIIST — within error, 0.53 ± 0.029
